Source: WO2012172495A1 (dated 2012)

Key:
[1] = biological target: T1, purified recombinant hTEM8(ED)-Fc fusion protein, biotinylated (human, UniProt Q9H6X2 33-321, biotinylated (site not stated)); assay: ELISA, Fab on biotinylated human TEM8-Fc
T1 construct: also called human TEM8-Fc
T1 sequence: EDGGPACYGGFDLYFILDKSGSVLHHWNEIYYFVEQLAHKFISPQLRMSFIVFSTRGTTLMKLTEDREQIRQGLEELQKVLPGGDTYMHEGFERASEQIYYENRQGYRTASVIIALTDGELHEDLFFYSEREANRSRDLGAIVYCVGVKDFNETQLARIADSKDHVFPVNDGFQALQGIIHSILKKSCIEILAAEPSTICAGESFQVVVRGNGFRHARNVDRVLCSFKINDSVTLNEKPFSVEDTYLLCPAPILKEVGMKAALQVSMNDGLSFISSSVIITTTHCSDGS

[2] = biological target: T2, human TEM8 on transfected HEK-293 cells (293/Flag-hTEM8) (human, UniProt Q9H6X2 33-564); assay: immunofluorescence microscopy, 10 ug/ml Fab on HEK-293 cells transfected with human TEM8, against untransfected HEK-293
T2 construct: also called HEK-293 transfected with human TEM8

binding result [1]: binds
binding result [2]: binds
B1: L5 Fab fragment (Anti-human TEM8_cl4) (Fab, V domains shown)
VH: QVQLVESGGGLVQPGGSLRLSCAASGFTFNSYGLSWVRQAPGKGLEWVSNISSNGSYTYYADSVKGRFTISRDNSKNTLYLQMNSLRAEDTAVYYCARAGYGLFDVWGQGTLVTVSS
VL: DIELTQPPSVSVAPGQTARISCSGDKLREYYVHWYQQKPGQAPVLVIYGDNKRPSGIPERFSGSNSGNTATLTISGTQAEDEADYYCSSWAGSRSGTVFGGGTKLTVL
notes: Tested as a purified Fab fragment; The light chain is lambda
